Results: article PMC3240630, “Structural Analysis of the UBA Domain of X-linked Inhibitor of Apoptosis Protein Reveals Different Surfaces for Ubiquitin-Binding and Self-Association” (PLoS ONE, 2011)

Key:
[1] = biological target: the molecule itself; experiment: 15N relaxation (rotational correlation time against concentration); 15N-XIAP-UBA at 0.16-1.9 mM; T1 and T2 at 298 K; non-linear fit of the rotational correlation time; dimer to monomers
[2] = biological target: T1, human ubiquitin (mono-ubiquitin) (human, UniProt P0CG48 1-76); experiment: NMR titration; 15N-labelled XIAP-UBA (0.5 mM, about 0.3 mM at the last point, predominantly monomeric) titrated with unlabelled monoUb (to molar ratio 5.5), K48-Ub2 or LL-Ub2 (to 2.5); 1H-15N HSQC chemical shift perturbation; 298 K; 20 mM BisTris-HCl pH 6.7, 150 mM NaCl, 5 mM DTT; details: both partners purified
T1 construct: ubiquitin, human, the mature 76-residue protein (C-terminal diglycine Gly75-Gly76); Used unlabelled or 15N-labelled

[3] = biological target: T2, linear-linked diubiquitin (UniProt P0CG48 1-76; P0CG48 1-76); experiment: as above; details: both partners purified
T2 construct: ubiquitin, mature 76-residue protein, first unit; its C-terminal Gly is joined to the N-terminal Met of the next unit; ubiquitin, mature 76-residue protein, second unit; Unlabelled; also called LL-Ub2; linear-linked Ub2

- Kd [2]: 249 ± 19 µM
- Kd [3]: 59 ± 11 µM
B1: XIAP-UBA (UBA domain of X-linked inhibitor of apoptosis protein, residues 365-423) (domain or fragment, human, UniProt P98170 365-423, looked up)
chain: RIDDTIFQNPMVQEAIRMGFSFKDIKKIMEEKIQISGSNYKSLEVLVADLVNAQKDSMQ
notes: PDB 2KNA holds the longer construct 357-449; Used 15N- or 13C/15N-labelled or unlabelled; The tags are separated from XIAP-UBA by a thrombin site (LVPRG); also called XIAP UBA domain; XIAP-UBA WT; source: E. coli BL21 (DE3), purified
- Kd [1]: ~900 µM
- stoichiometry N [1]: 2
